T1: TolR with an octahistidine-tag at the C-terminus (E. coli, UniProt P0ABV6 1-142)
T1 sequence: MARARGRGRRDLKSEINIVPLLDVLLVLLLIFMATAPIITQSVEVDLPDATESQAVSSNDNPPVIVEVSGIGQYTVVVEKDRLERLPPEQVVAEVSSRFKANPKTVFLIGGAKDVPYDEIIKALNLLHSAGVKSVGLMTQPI

B1: TolQ (natural protein, E. coli)
chain: MTDMNILDLFLKASLLVKLIMLILIGFSIASWAIIIQRTRILNAAAREAEAFEDKFWSGIELSRLYQESQGKRDNLTGSEQIFYSGFKEFVRLHRANSHAPEAVVEGASRAMRISMNRELENLETHIPFLGTVGSISPYIGLFGTVWGIMHAFIALGAVKQATLQMVAPGIAEALIATAIGLFAAIPAVMAYNRLNQRVNKLELNYDNFMEEFTAILHRQAFTVSESNKG
B2: TolA (natural protein, E. coli, UniProt P19934 1-421, looked up)
chain: MSKATEQNDKLKRAIIISAVLHVILFAALIWSSFDENIEASAGGGGGSSIDAVMVDSGAVVEQYKRMQSQESSAKRSDEQRKMKEQQAAEELREKQAAEQERLKQLEKERLAAQEQKKQAEEAAKQAELKQKQAEEAAAKAAADAKAKAEADAKAAEEAAKKAAADAKKKAEAEAAKAAAEAQKKAEAAAAALKKKAEAAEAAAAEARKKAATEAAEKAKAEAEKKAAAEKAAADKKAAAEKAAADKKAAEKAAAEKAAADKKAAAEKAAADKKAAAAKAAAEKAAAAKAAAEADDIFGELSSGKNAPKTGGGAKGNNASPAGSGNTKNNGASGADINNYAGQIKSAIESKFYDASSYAGKTCTLRIKLAPDGMLLDIKPEGGDPALCQAALAAAKLAKIPKPPSQAVYEVFKNAPLDFKP

What was measured:
[1] = biological target: the molecule itself; assay: cryo-EM structure
[2] = biological target: B1; assay: co-purification
[3] = biological target: T1, TolR with an octahistidine-tag at the …; assay: co-purification

Row | Binder | stoichiometry N [1] | stoichiometry N [2] | stoichiometry N [3]
1 | B1 | 5 | – | –
2 | B2 | – | ~4.5 TolQ per TolA | ~1.5 TolR per TolA

Reference: paper doi:10.1101/2024.11.27.625625 (bioRxiv, 2024)
